Assay results published in paper PMC7465229.
pKd: −log10 of the molar value.

Test system: H5N1 influenza A virus, whole virion (hemagglutinin presumed target) (Influenza A virus H5N1 (A/wild duck/Korea/SNU50-5/2011))
Assay: rGO fluorescence recovery
Settings: assay buffer, pH and temperature not stated ([…]

**Q.** With GACCGTGTCAGCGGGGACTAGCGGTG [tHBA1] as the sequence, how does the pKd read?
**A.** The pKd was 6.31.

**Q.** How did the pKd turn out when CCGCGCGGGTCTGAGGAGTGCGCGG [tHBA2] was run?
**A.** Its pKd is 5.88.

**Q.** “ATGCGGATCCCGCGCGGGTCTGAGGAGTGCGCGGTGCCAGTGAGTGCGCGAAGCTTGCGC [HBA2]” was tested. Which pKd did it give?
**A.** Its pKd is 6.91.

**Q.** How did the pKd turn out when “ATGCGGATCCCGCGCGCGACCGTGTCAGCGGGGACTAGCGGTGTAGCGCGAAGCTTGCGC [HBA1]” was run?
**A.** The pKd was 7.15.
